These results are taken from patent publication US20170137513A1.

The target of this experiment is T1, monkey CD22 (Rhesus monkey) (UniProt H9G1X2).
T1 sequence: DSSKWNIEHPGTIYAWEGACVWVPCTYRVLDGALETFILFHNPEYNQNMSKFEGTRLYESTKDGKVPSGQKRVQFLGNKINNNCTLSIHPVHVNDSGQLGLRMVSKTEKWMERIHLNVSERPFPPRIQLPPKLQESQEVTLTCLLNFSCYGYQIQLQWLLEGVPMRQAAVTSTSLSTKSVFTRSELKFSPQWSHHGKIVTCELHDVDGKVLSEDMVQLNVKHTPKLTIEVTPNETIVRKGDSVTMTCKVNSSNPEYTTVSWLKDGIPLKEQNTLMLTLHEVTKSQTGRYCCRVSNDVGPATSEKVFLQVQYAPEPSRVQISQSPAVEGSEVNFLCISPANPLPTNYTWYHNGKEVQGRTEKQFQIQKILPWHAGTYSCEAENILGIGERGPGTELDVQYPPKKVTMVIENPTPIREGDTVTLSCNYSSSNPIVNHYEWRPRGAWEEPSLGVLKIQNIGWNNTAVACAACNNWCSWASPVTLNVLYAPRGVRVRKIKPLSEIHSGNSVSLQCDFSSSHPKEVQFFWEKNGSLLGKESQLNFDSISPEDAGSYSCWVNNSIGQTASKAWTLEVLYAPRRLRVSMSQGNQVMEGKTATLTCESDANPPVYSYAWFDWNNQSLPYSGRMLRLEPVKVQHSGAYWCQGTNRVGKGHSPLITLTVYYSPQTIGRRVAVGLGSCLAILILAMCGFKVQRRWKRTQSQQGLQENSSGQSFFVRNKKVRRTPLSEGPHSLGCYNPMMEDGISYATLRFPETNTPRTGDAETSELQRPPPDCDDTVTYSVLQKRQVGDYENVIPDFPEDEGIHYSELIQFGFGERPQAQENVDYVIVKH
The experiment is described as follows: flow cytometry, direct immunofluorescence on Rhesus monkey PBMC.

B1: RFB4 monoclonal antibody (antibody, V domains shown)
VH: EVQLVESGGGLVKPGGSLKLSCAASGFAFSIYDMSWVRQTPEKRLEWVAYISSGGGTTYYPDTVKGRFTISRDNAKNTLYLQMSSLKSEDTAMYYCARHSGYGSSYGVLFAYWGQGTLVTVSA
VL: DIQMTQTTSSLSASLGDRVTISCRASQDISNYLNWYQQKPDGTVKLLIYYTSILHSGVPSRFSGSGSGTDYSLTISNLEQEDFATYFCQQGNTLPWTFGGGTKLEIK
The molecule B1 displayed a percent positive cells of 31.3%.
